Reference: patent US20220332804A1 (CSL INNOVATION, published 2022)
Numbering of substitutions follows the chain as printed.

Columns and labels:
Experiment in all cases: SPR, antibody captured, C2 as analyte;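 also: biacore SPR at 37 °C, anti-C2 mAbs captured via goat anti-human IgG on CM5 chips, double-referenced sensorgrams fit to a 1:1 kinetic or steady-state model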
human C2 M648A = biological target: T1, human C2 M648A (human, UniProt P06681 21-752)
T1 sequence: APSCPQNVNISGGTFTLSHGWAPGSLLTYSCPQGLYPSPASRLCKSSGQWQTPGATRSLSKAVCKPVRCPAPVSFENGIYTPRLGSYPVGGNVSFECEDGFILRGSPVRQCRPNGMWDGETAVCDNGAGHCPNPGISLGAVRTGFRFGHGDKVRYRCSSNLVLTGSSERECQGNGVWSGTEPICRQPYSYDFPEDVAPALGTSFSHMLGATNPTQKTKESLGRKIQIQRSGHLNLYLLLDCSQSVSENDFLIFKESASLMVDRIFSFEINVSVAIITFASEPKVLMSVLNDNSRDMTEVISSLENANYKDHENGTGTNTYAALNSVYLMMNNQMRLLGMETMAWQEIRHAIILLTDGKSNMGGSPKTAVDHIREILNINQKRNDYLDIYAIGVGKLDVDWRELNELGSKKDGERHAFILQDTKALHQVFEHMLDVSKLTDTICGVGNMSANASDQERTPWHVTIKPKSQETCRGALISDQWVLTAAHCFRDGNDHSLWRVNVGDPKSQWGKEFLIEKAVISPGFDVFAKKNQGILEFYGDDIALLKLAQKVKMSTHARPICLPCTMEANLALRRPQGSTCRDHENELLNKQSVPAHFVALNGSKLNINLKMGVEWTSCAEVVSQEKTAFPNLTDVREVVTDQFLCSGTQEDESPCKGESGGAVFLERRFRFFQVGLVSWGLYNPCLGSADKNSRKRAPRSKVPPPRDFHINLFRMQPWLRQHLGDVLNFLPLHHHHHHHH

human C2 K329A = biological target: T2, human C2 K329A (human, UniProt P06681 21-752)
T2 sequence: T1 sequence with K309A, A628M

human C2 Q489A = biological target: T3, human C2 Q489A (human, UniProt P06681 21-752)
T3 sequence: T1 sequence with Q469A, A628M

human C2 D431A = biological target: T4, human C2 D431A (human, UniProt P06681 21-752)
T4 sequence: T1 sequence with D411A, A628M

B1: RF16-226 (antibody, human IgG4 S228P, lambda)
heavy: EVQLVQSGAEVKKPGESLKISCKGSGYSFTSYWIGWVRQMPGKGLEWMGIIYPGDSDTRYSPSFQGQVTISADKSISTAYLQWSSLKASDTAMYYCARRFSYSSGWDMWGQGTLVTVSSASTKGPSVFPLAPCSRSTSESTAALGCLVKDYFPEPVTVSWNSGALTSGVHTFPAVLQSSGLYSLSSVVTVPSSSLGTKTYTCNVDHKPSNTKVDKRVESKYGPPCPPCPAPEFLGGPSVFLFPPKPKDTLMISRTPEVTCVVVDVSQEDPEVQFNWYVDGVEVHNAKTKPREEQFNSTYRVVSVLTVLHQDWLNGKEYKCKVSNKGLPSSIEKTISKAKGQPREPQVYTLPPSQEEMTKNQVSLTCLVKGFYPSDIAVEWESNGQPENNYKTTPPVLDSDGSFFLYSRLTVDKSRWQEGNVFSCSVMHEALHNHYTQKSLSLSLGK
light: SYELTQPPSVSVSPGQTARITCSGDALTSKYVAWYQQKSGLAPLLVIYEDTRRPSGIPAKFSGSSSGSVATLTISGAHGDDEADYYCYSTDASGHQRVFGGGTKLTVLSQPKAAPSVTLFPPSSEELQANKATLVCLISDFYPGAVTVAWKADGSPVKAGVETTKPSKQSNNKYAASSYLSLTPEQWKSHRSYSCQVTHEGSTVEKTVAPTECS
notes: pH-dependent anti-C2 antibody from a phage display library; also called WT
Question: Which Kd (human C2 M648A) does the source give for B1 here?
Answer: Its Kd is 203 nM.

Question: What about the Kd (human C2 K329A) of the same binder?
Answer: The Kd was 25.6 nM.

Question: What about the Kd (human C2 Q489A) of the same binder?
Answer: The Kd was 104 nM.

Question: And the Kd (human C2 D431A)?
Answer: The Kd was 43.4 nM.
